Measurements: US20040136985A1 (published 2004)
One block for each binder: values may come before it.

Assays:
[1] = target: T1, human plasma fibronectin (human, UniProt P02751-8 32-2296, limits assumed); experiment: competition ELISA, peptide 6 titrated 0-160 µM against FN binding to immobilized CD9
T1 construct: Bought plasma protein; also called FN; human plasma FN
Experimental: FIG. 2C illustrates the effect of titrations of Peptide 6 (0-160 μM) on FN-CD9 binding was evaluated. […] The ability of CD9-CHO-B2 cells to adhere to FN was compared with Mock-CHOB2 cells. CD9-CHO-B2 cells had increased adhesion to FN in the absence of integrin α5β1 expression when compared to Mock-CHO-B2 cells. […] A scrambled control (peptide 6S) had no significant effect on CD9-CHO-B2 cell adhesion (p>0.005).
All incubation periods for the CD9/FN binding ELISA lasted two hours at RT unless otherwise indicated. Immulon I (Dynatech) microtiter plate wells were coated with CD9 (2 μg/ml), His₆-rCD9 (2 μg/ml), BSA (10 μg/ml), or peptide (10 μM) in Buffer A. After one wash with Buffer B, plates were blocked with Blocking Buffer 1.1% BSA was included in steps from ligand overlay to addition of mAb conjugate to minimize non-specific binding. Titrations of human plasma FN in Buffer B were added to plates either alone, or in the case of competition ELISAs, with 0-160 μM synthetic peptide. Plates were washed three times with ELISA Buffer B, followed by incubation with a 1/1000 dilution of rabbit anti-FN antibody. After two washes with Buffer B and one wash with Buffer C, plates were incubated with 1/500 antirabbit IgG alkaline phosphatase in Buffer C for one hour at RT. After four washes with Buffer C, 1 mg/mlp-nitrophenyl phosphate substrate was added and the absorbance at 405 nm was recorded.

[2] = target: T1, human plasma fibronectin; experiment: cell-based or functional assay

T1 sequence (P02751 other isoform, or with tags, fused parts or gaps limits assumed): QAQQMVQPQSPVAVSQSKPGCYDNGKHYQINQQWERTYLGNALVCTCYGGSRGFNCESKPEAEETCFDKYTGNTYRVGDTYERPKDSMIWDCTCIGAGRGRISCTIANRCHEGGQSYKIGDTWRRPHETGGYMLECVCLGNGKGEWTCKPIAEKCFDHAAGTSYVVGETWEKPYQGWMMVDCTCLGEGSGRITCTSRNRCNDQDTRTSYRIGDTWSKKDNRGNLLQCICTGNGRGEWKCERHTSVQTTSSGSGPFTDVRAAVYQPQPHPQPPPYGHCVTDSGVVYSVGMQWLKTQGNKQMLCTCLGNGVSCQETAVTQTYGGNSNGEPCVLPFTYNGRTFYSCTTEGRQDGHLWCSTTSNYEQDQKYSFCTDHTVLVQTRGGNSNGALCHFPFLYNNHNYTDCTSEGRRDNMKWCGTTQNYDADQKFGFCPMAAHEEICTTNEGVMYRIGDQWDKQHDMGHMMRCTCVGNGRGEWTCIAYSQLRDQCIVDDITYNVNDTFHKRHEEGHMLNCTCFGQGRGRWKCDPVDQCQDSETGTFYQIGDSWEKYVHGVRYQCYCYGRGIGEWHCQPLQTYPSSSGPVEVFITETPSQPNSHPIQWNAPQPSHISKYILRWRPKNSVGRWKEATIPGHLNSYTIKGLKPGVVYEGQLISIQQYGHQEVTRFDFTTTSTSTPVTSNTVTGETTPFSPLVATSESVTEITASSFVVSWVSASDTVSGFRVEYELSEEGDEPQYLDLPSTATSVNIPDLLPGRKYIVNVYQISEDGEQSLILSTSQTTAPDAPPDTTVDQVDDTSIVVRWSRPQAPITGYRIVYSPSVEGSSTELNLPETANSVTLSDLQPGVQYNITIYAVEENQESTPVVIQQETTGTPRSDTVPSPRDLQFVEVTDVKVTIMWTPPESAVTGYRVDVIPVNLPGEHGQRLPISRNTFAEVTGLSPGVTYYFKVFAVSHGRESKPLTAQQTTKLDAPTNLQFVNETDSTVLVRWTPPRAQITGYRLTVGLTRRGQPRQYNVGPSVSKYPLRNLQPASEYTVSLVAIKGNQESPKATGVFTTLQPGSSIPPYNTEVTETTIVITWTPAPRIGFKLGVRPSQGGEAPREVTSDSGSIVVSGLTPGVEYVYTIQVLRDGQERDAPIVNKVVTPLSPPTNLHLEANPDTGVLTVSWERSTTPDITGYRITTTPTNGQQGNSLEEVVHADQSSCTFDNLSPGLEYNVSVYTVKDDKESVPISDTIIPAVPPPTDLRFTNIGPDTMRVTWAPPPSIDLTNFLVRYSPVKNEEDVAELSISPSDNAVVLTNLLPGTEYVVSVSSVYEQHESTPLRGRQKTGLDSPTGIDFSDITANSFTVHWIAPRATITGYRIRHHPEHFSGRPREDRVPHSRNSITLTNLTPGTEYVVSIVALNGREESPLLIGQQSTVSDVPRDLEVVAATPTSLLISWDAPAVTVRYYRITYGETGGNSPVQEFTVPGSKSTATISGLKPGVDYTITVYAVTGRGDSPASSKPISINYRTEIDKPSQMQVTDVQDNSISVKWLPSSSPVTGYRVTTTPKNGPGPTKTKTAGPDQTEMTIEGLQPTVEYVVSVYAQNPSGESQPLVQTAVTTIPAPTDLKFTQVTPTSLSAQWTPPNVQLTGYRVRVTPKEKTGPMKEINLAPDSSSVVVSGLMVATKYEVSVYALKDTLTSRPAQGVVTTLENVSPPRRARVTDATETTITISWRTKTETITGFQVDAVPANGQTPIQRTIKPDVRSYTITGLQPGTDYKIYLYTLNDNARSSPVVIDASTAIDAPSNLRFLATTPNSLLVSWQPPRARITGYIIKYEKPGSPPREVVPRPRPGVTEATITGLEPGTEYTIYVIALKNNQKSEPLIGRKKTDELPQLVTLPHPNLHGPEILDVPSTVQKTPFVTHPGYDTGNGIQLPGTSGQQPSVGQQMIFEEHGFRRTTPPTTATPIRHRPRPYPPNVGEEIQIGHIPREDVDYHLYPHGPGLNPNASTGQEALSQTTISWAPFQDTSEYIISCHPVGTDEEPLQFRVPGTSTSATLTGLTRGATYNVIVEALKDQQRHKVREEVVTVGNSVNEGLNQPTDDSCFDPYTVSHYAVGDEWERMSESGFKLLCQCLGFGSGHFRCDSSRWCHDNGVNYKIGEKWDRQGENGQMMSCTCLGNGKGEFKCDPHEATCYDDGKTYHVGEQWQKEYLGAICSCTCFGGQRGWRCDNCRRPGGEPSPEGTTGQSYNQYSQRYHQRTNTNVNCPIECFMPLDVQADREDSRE

IC50 (read off the curve) [1]: ~20 µM
B1: peptide 6 (peptide)
peptide: PKKDVLETFTVKSCPDAIKEVFDNK
notes: Synthetic peptide of CD9 EC2

reduction in haptotactic motility to FN [2]: 45%
B3: CD9 Δ173-192 (receptor)
chain: MPVKGGTKCIKYLLFGFNFIFWLAGIAVLAIGLWLRFDSQTKSIFEQETNNNNSSFYTGVYILIGAGALMMLVGFLGCCGAVQESQCMLGLFFGFLLVIFAIEIAAAIWGYSHKDEVIKEVQEFYKDTYNKLKTKDEPQRETLKAIHYALNCCGLAGGVEQFISDICPKKDVFHIIGAVGIGIAVVMIFGMIFSMILCCAIRRNREMV

Continued, binder first:

B2: CD9 Δ133-192 (receptor)
chain: MPVKGGTKCIKYLLFGFNFIFWLAGIAVLAIGLWLRFDSQTKSIFEQETNNNNSSFYTGVYILIGAGALMMLVGFLGCCGAVQESQCMLGLFFGFLLVIFAIEIAAAIWGYSHKDEVIKEVQEFYKDTYNKLFHIIGAVGIGIAVVMIFGMIFSMILCCAIRRNREMV
reduction in haptotactic motility to FN [2]: 64%

B4: CD9 Δ113-228 (receptor)
chain: MPVKGGTKCIKYLLFGFNFIFWLAGIAVLAIGLWLRFDSQTKSIFEQETNNNNSSFYTGVYILIGAGALMMLVGFLGCCGAVQESQCMLGLFFGFLLVIFAIEIAAAIWGYS
reduction in haptotactic motility to FN [2]: 58%
